Assay results as given in patent US20050182242A1, “Global analysis of protein activities using proteome chips” (priority 2001, published 2005).

B1: RGD1: yeast GST-HisX6 fusion protein on proteome chip (protein, UniProt P38339 1-666, looked up)
RHO GTPase-activating protein …: MEETAKKPASATVSAKSSHDGGTDDLAHLFSTPEIKKVLNSDVAINALLSRLKQSLLTCEEFMKFIRKKYAFEEEHVQELSKQYKHFFNIQGSTNSSLKKMIHEVLGFDGKMAQVKQSYITALQKMYSEISSLLLTMTKLRKSVKENSKRLEKDVSDAIHSAEKAQSRYNSLCQDWDKLRMTDPTKTKLTLRGSKTTKEQEEELLRKIDNADLEYKQKVDHSNSLRNTFITKERPRIVQELKDLILEIDTAMTIQLQKYTIWTENLVLNTGVTISPLDSTKSMKSFAGSVSNERDLYSFLNKYNQTGKHSLLINKNLIPVSYKKHPSMNHGQKNKSPPKFAVDPSRNSIPKRMISTHNESPFLSSSSNTAAVPNANLNSATPSLNTNKQLPPTMASSISSTSNAAGAMSPSSSIVTSDTTSSITKTLDPGNNSPQIPEELINSLDSDRPISHIQTNNNMPPGVQKNFKTFGVPLESLIEFEQDMVPAIVRQCIYVIDKFGLDQEGIYRKSANVLDVSKLKEEIDKDPANISMILPSKPHSDSDIYLVGSLLKTFFASLPDSVLPKALSSEIKVCLQIEDPTTRKNFMHGLIYNLPDAQYWTLRALVFHLKRVLAHEAQNRMNLRALCIIWGPTIAPANPDDANDVNFQIMAMEVLLEVSDQAFEPE
modifications: GST-His6 tag
notes: yeast GST-HisX6 fusion protein on proteome chip
B2: SAS3: yeast GST-HisX6 fusion protein on proteome chip (protein, UniProt P34218 1-831, looked up)
Histone acetyltransferase SAS3: MSLTANDESPKPKKNALLKNLEIDDLIHSQFVRSDTNGHRTTRRLFNSDASISHRIRGSVRSDKGLNKIKKGLISQQSKLASENSSQNIVNRDNKMGAVSFPIIEPNIEVSEELKVRIKYDSIKFFNFERLISKSSVIAPLVNKNITSSGPLIGFQRRVNRLKQTWDLATENMEYPYSSDNTPFRDNDSWQWYVPYGGTIKKMKDFSTKRTLPTWEDKIKFLTFLENSKSATYINGNVSLCNHNETDQENEDRKKRKGKVPRIKNKVWFSQIEYIVLRNYEIKPWYTSPFPEHINQNKMVFICEFCLKYMTSRYTFYRHQLKCLTFKPPGNEIYRDGKLSVWEIDGRENVLYCQNLCLLAKCFINSKTLYYDVEPFIFYILTEREDTENHPYQNAAKFHFVGYFSKEKFNSNDYNLSCILTLPIYQRKGYGQFLMEFSYLLSRKESKFGTPEKPLSDLGLLTYRTFWKIKCAEVLLKLRDSARRRSNNKNEDTFQQVSLNDIAKLTGMIPTDVVFGLEQLQVLYRHKTRSLSSLDDFNYIIKIDSWNRIENIYKTWSSKNYPRVKYDKLLWEPIILGPSFGINGMMNLEPTALADEALTNETMAPVISNNTHIENYNNSRAHNKRRRRRRRSSEHKTSKLHVNNIIEPEVPATDFFEDTVSSLTEYMCDYKNTNNDRLIYQAEKRVLESIHDRKGIPRSKFSTETHWELCFTIKNSETPLGNHAARRNDTGISSLEQDEVENDVDTELYVGENAKEDEDEDEDFTLDDDIEDEQISEENDEEEDTYEEDSDDDEDGKRKGQEQDENDIESHIRKERVRKRRKITLIEDDEE
modifications: GST-His6 tag
notes: as for B1
B3: SGA1: yeast GST-HisX6 fusion protein on proteome chip (protein, UniProt P08019 1-549, looked up)
Glucoamylase, intracellular …: MARQKMFYNKLLGMLSVGFGFAWALENITIYEFDFGKGILDQSYGGVFSNNGPSQVQLRDAVLMNGTVVYDSNGAWDSSALEEWLQGQKKVSIEKIFENIGPSAVYPSISPGVVIASPSQTHPDYFYQWIRDSALTINSIVSHSAGPAIETLLQYLNVSFHLQRSNNTLGAGIGYTNDTVALGDPKWNVDNTAFTEDWGRPQNDGPALRSIAILKIIDYIKQSGTDLGAKYPFQSTADIFDDIVRWDLRFIIDHWNSSGFDLWEEVNGMHFFTLLVQLSAVDKSLSYFNASERSSPFVEELRQTRRDISKFLVDPANGFINGKYNYIVGTPMIADTLRSGLDISTLLAANTVHDAPSASHLPFDINDPAVLNTLHHLMLHMRSIYPINDSSKNATGIALGRYPEDVYDGYGFGEGNPWVLATCTASTTLYQLIYRHISEQHDLVVPMNNDCSNAFWSELVFSNLTTLGNDEGYLILEFNTPAFNQTIQKIFQLADSFLVKLKAHVGTDGELSEQFNKYTGFMQGAQHLTWSYTSFWDAYQIRQEVLQSL
modifications: GST-HisX6 tag
notes: as for B1
B4: MUM2: yeast GST-HisX6 fusion protein on proteome chip (protein, UniProt P38236 1-366, looked up)
Protein MUM2: MNYMAYDYDPQHSLETSFNNLAFHPHQQSQQQALYESGERNDARPGLMNTLGQASKMNNSMLPQGSSASPLTGQHSLNSTTNFNMPPSMNTYNYQNVPQASMRNTLNHNNIMNGATANDYWLDPMNNMTNNKDTNGNPNDSMSSMSNMTAKTSINSTAFKNSFVPFNHVTALSMNNVNSNEMNSNKDDRMEALEVELQIKESQIESLENEIQRLKKIFNEGLNYKQNEHKYEKENCHIPQTFELPASLEVIFRKLSSSLHAKEKELAETKENLESILTALALNPTNSVTKYGRYDAESIAHKMVVRLENLTNENKEMAKMLAYGRSKETQIELQLAKKENLELREKIASLEAHLASKESSKEDVAN
modifications: GST-His6 fusion tag
notes: as for B1
B5: VMA13: yeast GST-HisX6 fusion protein on proteome chip (protein, UniProt P41807 2-478, looked up)
V-type proton ATPase subunit H: GATKILMDSTHFNEIRSIIRSRSVAWDALARSEELSEIDASTAKALESILVKKNIGDGLSSSNNAHSGFKVNGKTLIPLIHLLSTSDNEDCKKSVQNLIAELLSSDKYGDDTVKFFQEDPKQLEQLFDVSLKGDFQTVLISGFNVVSLLVQNGLHNVKLVEKLLKNNNLINILQNIEQMDTCYVCIRLLQELAVIPEYRDVIWLHEKKFMPTLFKILQRATDSQLATRIVATNSNHLGIQLQYHSLLLIWLLTFNPVFANELVQKYLSDFLDLLKLVKITIKEKVSRLCISIILQCCSTRVKQHKKVIKQLLLLGNALPTVQSLSERKYSDEELRQDISNLKEILENEYQELTSFDEYVAELDSKLLCWSPPHVDNGFWSDNIDEFKKDNYKIFRQLIELLQAKVRNGDVNAKQEKIIIQVALNDITHVVELLPESIDVLDKTGGKADIMELLNHSDSRVKYEALKATQAIIGYTFK
modifications: GST-His6 tag
notes: as for B1
B6: APA2: yeast GST-HisX6 fusion protein on proteome chip (protein, UniProt P22108 1-325, looked up)
Diadenosine …: MIEENLKQKIHDKFVAAKKNGHLKVTHAESKKLKDPQTTTQYWVTFAPSLALKPDANKNSDSKAEDPFANPDEELVVTEDLNGDGEYKLLLNKFPVVPEHSLLVTSEFKDQRSALTPSDLMTAYNVLCSLQGDKDDDVTCERYLVFYNCGPHSGSSQDHKHLQIMQMPEKFIPFQDVLCNGKDHFLPTFNAEPLQDDKVSFAHFVLPLPESSDQVDEDLLAMCYVSLMQRALTFFQDWTNESPELTKSYNVLLTKKWICVVPRSHAKSGPPLMLNINSTGYCGMILVKDREKLENLTEDPHLVDKSLLQCGFPNTAGQKPTEYHY
modifications: GST-His6 fusion tag
notes: as for B1
B7: GPA2: yeast GST-HisX6 fusion protein on proteome chip (protein, UniProt P10823 2-449, looked up)
Guanine nucleotide-binding …: GLCASSEKNGSTPDTQTASAGSDNVGKAKVPPKQEPQKTVRTVNTANQQEKQQQRQQQPSPHNVKDRKEQNGSINNAISPTATANTSGSQQINIDSALRDRSSNVAAQPSLSDASSGSNDKELKVLLLGAGESGKSTVLQQLKILHQNGFSEQEIKEYIPLIYQNLLEIGRNLIQARTRFNVNLEPECELTQQDLSRTMSYEMPNNYTGQFPEDIAGVISTLWALPSTQDLVNGPNASKFYLMDSTPYFMENFTRITSPNYRPTQQDILRSRQMTSGIFDTVIDMGSDIKMHIYDVGGQRSERKKWIHCFDNVTLVIFCVSLSEYDQTLMEDKNQNRFQESLVLFDNIVNSRWFARTSVVLFLNKIDLFAEKLSKVPMENYFPDYTGGSDINKAAKYILWRFVQLNRANLSIYPHVTQATDTSNIRLVFAAIKETILENTLKDSGVLQ
modifications: GST-His6 tag
notes: as for B1
B8: TFB3: yeast GST-HisX6 fusion protein on proteome chip (protein, UniProt Q03290 1-321, looked up)
RNA polymerase II …: MLMDEYEENKDMCPICKTDRYLSPDVKFLVNPECYHRICESCVDRIFSLGPAQCPYKGCDKILRKNKFKTQIFDDVEVEKEVDIRKRVFNVFNKTIDDFNGDLVEYNKYLEEVEDIIYKLDHGIDVAKTEEKLRTYEELNKQLIMNNLERSRTEIESFEQRQKFEKEMKLKKRLLERQIEEEERMNKEWTKKEIVNRLSTTTQDINETIEGVKNTVKLKKSSARRKLEELNRVLKNNPYFNSNVNVQNSRLKDAVPFTPFNGDREAHPRFTLKGSVYNDPFIKDLEHRKEFIASGFNTNYAYERVLTEAFMGLGCVISEEL
modifications: GST-His6 tag
notes: as for B1

Assays:
Details in all cases: liposome binding signal on yeast proteome chip, Cy3-streptavidin detection
PI(4)P liposomes = assay: Yeast proteome chip probed with PI(4)P liposomes
PI(4,5)P2 liposomes = assay: Yeast proteome chip probed with PI(4,5)P2 liposomes
[1] = tested on: phosphatidylcholine (PC) liposomes; assay: Yeast proteome chip probed with PC liposomes
Method in brief: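 Binding of arrayed yeast proteins to sonicated PC liposomes, with or without 5% (w/w) phosphoinositide, is scored by streptavidin fluorescence on the biotinylated lipid tracer.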

PI(3)P liposomes = assay: Yeast proteome chip probed with PI(3)P liposomes
PI(3,4)P2 liposomes = assay: Yeast proteome chip probed with PI(3,4)P2 liposomes
PI(3,4,5)P3 liposomes = assay: Yeast proteome chip probed with PI(3,4,5)P3 liposomes

Row | Molecule | PI(4)P (PI(4)P liposomes) | PI(4, 5)P2 (PI(4,5)P2 liposomes) | PC [1] | PI(3)P (PI(3)P liposomes) | PI(3, 4)P2 (PI(3,4)P2 liposomes) | PI(3, 4, 5)P3 (PI(3,4,5)P3 liposomes)
1 | B1 | 127.60 | 55.31 | 54.59 | 6.00 | 54.31 | 19.35
2 | B2 | 16.55 | 17.85 | 54.00 | 2.00 | 55.57 | 18.68
3 | B3 | 41.15 | 6.75 | 52.83 | 16.50 | 60.59 | 26.55
4 | B4 | 90.15 | 38.76 | 46.66 | 81.50 | 49.29 | 63.34
5 | B5 | 16.55 | 34.40 | 45.78 | 11.50 | 44.27 | 28.12
6 | B6 | 43.98 | 34.84 | 42.26 | 22.50 | 31.40 | 40.05
7 | B7 | 87.31 | 44.85 | 39.33 | −50.50 | 119.93 | 13.05
8 | B8 | 43.98 | 37.23 | 37.86 | 71.00 | 47.72 | 27.45
